From article PMC6210165, “Structure-Based Engineering of Phanerochaete chrysosporium Alcohol Oxidase for Enhanced Oxidative Power toward Glycerol” (Biochemistry, 2018)

What was measured:
Details in all cases: 50 mM potassium phosphate pH 7.5, 25 °C, co-substrate O2, fit errors ≤11%
[1] = substrate: CO; test: HRP-coupled H2O2 assay, steady-state kinetics; assay type: biochemical, Phanerodontia chrysosporium
Excerpt: (§1) HRP-coupled H2O2 assay, steady-state kinetics on PcAOX (His-SUMO-PcAOX)

[2] = substrate: CCCO; test: HRP-coupled H2O2 assay, steady-state kinetics; assay type: biochemical, Phanerodontia chrysosporium
Excerpt: as §1

purified protein = substrate: CCO; test: purified protein

Protein	Km [1] [mM]	kcat [1] [s⁻¹]	kcat/Km [1] [M⁻¹ s⁻¹]	Km [2] [mM]	kcat [2] [s⁻¹]	kcat/Km [2] [M⁻¹ s⁻¹]	Km (purified protein) [mM]	kcat (purified protein) [s⁻¹]	kcat/Km (purified protein) [M⁻¹ s⁻¹]
PcAOX (His-SUMO-PcAOX) (Phanerodontia chrysosporium) (protein, codon-optimized, E. coli BL21(DE3); N-terminal His-SUMO fusion kept for all kinetics, tag cleaved for crystals; homo-octamer with FAD; residues 2-645 seen in structure) MGHPEEVDVIVCGGGPAGCVVAGRLAYADPTLKVMLIEGGANNRDDPWVYRPGIYVRNMQRNGINDKATFYTDTMASSYLRGRRSIVPCANILGGGSSINFQMYTRASASDWDDFKTEGWTCKDLLPLMKRLENYQKPCNNDTHGYDGPIAISNGGQIMPVAQDFLRAAHAIGVPYSDDIQDLTTAHGAEIWAKYINRHTGRRSDAATAYVHSVMDVQDNLFLRCNARVSRVLFDDNNKAVGVAYVPSRNRTHGGKLHETIVKARKMVVLSSGTLGTPQILERSGVGNGELLRQLGIKIVSDLPGVGEQYQDHYTTLSIYRVSNESITTDDFLRGVKDVQRELFTEWEVSPEKARLSSNAIDAGFKIRPTEEELKEMGPEFNELWNRYFKDKPDKPVMFGSIVAGAYADHTLLPPGKYITMFQYLEYPASRGKIHIKSQNPYVEPFFDSGFMNNKADFAPIRWSYKKTREVARRMDAFRGELTSHHPRFHPASPAACKDIDIETAKQIYPDGLTVGIHMGSWHQPSEPYKHDKVIEDIPYTEEDDKAIDDWVADHVETTWHSLGTCAMKPREQGGVVDKRLNVYGTQNLKCVDLSICPDNLGTNTYSSALLVGEKGADLIAEELGLKIKTPHAPVPHAPVPTGRPATQQVR	2	18	9000	45	11	240	15	19	1300
PcAOX (His-SUMO-PcAOX) (Phanerodontia chrysosporium; F101N) (protein, codon-optimized, E. coli BL21(DE3); N-terminal His-SUMO fusion kept for all kinetics, tag cleaved for crystals; homo-octamer with FAD; residues 2-645 seen in structure) MGHPEEVDVIVCGGGPAGCVVAGRLAYADPTLKVMLIEGGANNRDDPWVYRPGIYVRNMQRNGINDKATFYTDTMASSYLRGRRSIVPCANILGGGSSINNQMYTRASASDWDDFKTEGWTCKDLLPLMKRLENYQKPCNNDTHGYDGPIAISNGGQIMPVAQDFLRAAHAIGVPYSDDIQDLTTAHGAEIWAKYINRHTGRRSDAATAYVHSVMDVQDNLFLRCNARVSRVLFDDNNKAVGVAYVPSRNRTHGGKLHETIVKARKMVVLSSGTLGTPQILERSGVGNGELLRQLGIKIVSDLPGVGEQYQDHYTTLSIYRVSNESITTDDFLRGVKDVQRELFTEWEVSPEKARLSSNAIDAGFKIRPTEEELKEMGPEFNELWNRYFKDKPDKPVMFGSIVAGAYADHTLLPPGKYITMFQYLEYPASRGKIHIKSQNPYVEPFFDSGFMNNKADFAPIRWSYKKTREVARRMDAFRGELTSHHPRFHPASPAACKDIDIETAKQIYPDGLTVGIHMGSWHQPSEPYKHDKVIEDIPYTEEDDKAIDDWVADHVETTWHSLGTCAMKPREQGGVVDKRLNVYGTQNLKCVDLSICPDNLGTNTYSSALLVGEKGADLIAEELGLKIKTPHAPVPHAPVPTGRPATQQVR	14	10	710	11	12	1100	11	10	910
PcAOX (His-SUMO-PcAOX) (Phanerodontia chrysosporium; F101S) (protein, codon-optimized, E. coli BL21(DE3); N-terminal His-SUMO fusion kept for all kinetics, tag cleaved for crystals; homo-octamer with FAD; residues 2-645 seen in structure) MGHPEEVDVIVCGGGPAGCVVAGRLAYADPTLKVMLIEGGANNRDDPWVYRPGIYVRNMQRNGINDKATFYTDTMASSYLRGRRSIVPCANILGGGSSINSQMYTRASASDWDDFKTEGWTCKDLLPLMKRLENYQKPCNNDTHGYDGPIAISNGGQIMPVAQDFLRAAHAIGVPYSDDIQDLTTAHGAEIWAKYINRHTGRRSDAATAYVHSVMDVQDNLFLRCNARVSRVLFDDNNKAVGVAYVPSRNRTHGGKLHETIVKARKMVVLSSGTLGTPQILERSGVGNGELLRQLGIKIVSDLPGVGEQYQDHYTTLSIYRVSNESITTDDFLRGVKDVQRELFTEWEVSPEKARLSSNAIDAGFKIRPTEEELKEMGPEFNELWNRYFKDKPDKPVMFGSIVAGAYADHTLLPPGKYITMFQYLEYPASRGKIHIKSQNPYVEPFFDSGFMNNKADFAPIRWSYKKTREVARRMDAFRGELTSHHPRFHPASPAACKDIDIETAKQIYPDGLTVGIHMGSWHQPSEPYKHDKVIEDIPYTEEDDKAIDDWVADHVETTWHSLGTCAMKPREQGGVVDKRLNVYGTQNLKCVDLSICPDNLGTNTYSSALLVGEKGADLIAEELGLKIKTPHAPVPHAPVPTGRPATQQVR	2	18	9000	4	7	1800	1	5	5000
